Measurements taken from article PMC9951875.

Target: UspA2 (ubiquitous surface protein A2), displayed on E. coli BL21(DE3) (Moraxella catarrhalis Bc5) (UniProt Q9XD55)
Assay: fluorescence cell-binding titration (eluted FAM-aptamer)

Row | Sequence | Kd
1 | ATCCAGAGTGACGCAGCATGGGACGGTGCGGGGGAGGAGGATGAGCGTGGTCGTTGGGTGGCTGCCGCAATGTCGTTGGTGGCCC [FAM-Apt1] | 214 nM
2 | GGGCCACCAACGACATTGCGGCAGCCACCCAACGACCACGCTCATCCTCCTCCCCCGCACCGTCCCATGCTGCGTCACTCTGGAT [FAM-Apt1_RC] | 3.4 nM
